Targets include TRPM4-K1045A; TRPA1; TRPV3; TRPV1; TRPM2; Nav1.7; Nav1.5.
Experiment in all cases: cell-based or functional assay
Experiment [1] concerns the target T1, TRPV2.
T1 sequence (Q9Y5S1 whole entry, species assumed, looked up): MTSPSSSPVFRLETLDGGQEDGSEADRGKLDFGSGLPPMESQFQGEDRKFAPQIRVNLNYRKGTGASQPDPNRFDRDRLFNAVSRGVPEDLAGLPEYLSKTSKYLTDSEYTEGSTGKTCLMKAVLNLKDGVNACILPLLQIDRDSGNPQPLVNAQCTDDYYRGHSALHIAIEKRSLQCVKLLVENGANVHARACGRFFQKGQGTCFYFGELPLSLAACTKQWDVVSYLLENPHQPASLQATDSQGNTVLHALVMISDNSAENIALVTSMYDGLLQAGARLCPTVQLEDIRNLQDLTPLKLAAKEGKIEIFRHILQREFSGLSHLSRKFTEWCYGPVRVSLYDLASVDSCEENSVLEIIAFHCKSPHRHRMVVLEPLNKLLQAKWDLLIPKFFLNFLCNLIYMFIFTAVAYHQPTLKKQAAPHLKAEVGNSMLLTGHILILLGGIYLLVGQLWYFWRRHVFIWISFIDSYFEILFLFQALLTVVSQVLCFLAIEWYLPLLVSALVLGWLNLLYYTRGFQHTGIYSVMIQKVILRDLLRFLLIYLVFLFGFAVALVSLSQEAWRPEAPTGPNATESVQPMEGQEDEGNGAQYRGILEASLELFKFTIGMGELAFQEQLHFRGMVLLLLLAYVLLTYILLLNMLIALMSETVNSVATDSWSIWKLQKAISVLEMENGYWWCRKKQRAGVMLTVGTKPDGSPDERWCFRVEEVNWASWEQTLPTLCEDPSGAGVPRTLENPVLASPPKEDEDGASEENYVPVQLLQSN

For experiment [2], the target named is T2, mouse TRPM8 channel (mouse, UniProt Q8R4D5 1-1104).
T2 sequence (Q8R4D5 whole entry): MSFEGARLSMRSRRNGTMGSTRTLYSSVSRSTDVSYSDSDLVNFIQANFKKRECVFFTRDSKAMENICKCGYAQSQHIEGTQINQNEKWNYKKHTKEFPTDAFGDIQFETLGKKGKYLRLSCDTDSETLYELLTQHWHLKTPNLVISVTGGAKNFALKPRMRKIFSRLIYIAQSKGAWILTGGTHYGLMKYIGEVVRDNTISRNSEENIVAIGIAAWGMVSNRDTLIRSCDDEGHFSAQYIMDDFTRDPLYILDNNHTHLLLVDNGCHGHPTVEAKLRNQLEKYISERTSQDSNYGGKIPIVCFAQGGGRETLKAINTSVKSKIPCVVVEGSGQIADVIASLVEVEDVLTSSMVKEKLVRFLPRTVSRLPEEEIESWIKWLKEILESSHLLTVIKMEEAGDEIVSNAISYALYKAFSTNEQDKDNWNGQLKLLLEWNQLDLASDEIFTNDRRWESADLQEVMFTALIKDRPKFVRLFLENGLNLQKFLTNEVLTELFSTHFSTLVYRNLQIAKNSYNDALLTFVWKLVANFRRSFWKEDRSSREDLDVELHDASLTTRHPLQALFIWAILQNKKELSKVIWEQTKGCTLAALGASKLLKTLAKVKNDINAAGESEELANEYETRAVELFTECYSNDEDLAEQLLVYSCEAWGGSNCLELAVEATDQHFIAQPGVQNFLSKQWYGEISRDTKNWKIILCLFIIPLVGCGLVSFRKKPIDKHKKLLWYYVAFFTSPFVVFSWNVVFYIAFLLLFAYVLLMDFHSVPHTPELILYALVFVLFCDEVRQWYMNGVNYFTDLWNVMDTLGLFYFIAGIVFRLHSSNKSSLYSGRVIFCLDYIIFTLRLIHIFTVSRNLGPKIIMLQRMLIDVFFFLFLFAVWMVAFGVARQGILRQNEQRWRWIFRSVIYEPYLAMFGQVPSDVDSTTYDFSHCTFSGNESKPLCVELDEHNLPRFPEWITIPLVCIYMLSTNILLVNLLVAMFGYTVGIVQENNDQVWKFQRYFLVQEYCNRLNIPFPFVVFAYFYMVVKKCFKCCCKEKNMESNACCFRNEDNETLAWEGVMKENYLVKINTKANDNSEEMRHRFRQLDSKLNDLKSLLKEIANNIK
Experiment [3] has as its target T1, TRPV2. This is another data set of the same source.
Experiment [4] addresses T2, mouse TRPM8 channel. This is another data set of the same source.

Bridges are numbered along the chain shown (N, C = ends). Where no end group is shown, it is not given here.

Chain of TRPV3 (Q8NET8 whole entry): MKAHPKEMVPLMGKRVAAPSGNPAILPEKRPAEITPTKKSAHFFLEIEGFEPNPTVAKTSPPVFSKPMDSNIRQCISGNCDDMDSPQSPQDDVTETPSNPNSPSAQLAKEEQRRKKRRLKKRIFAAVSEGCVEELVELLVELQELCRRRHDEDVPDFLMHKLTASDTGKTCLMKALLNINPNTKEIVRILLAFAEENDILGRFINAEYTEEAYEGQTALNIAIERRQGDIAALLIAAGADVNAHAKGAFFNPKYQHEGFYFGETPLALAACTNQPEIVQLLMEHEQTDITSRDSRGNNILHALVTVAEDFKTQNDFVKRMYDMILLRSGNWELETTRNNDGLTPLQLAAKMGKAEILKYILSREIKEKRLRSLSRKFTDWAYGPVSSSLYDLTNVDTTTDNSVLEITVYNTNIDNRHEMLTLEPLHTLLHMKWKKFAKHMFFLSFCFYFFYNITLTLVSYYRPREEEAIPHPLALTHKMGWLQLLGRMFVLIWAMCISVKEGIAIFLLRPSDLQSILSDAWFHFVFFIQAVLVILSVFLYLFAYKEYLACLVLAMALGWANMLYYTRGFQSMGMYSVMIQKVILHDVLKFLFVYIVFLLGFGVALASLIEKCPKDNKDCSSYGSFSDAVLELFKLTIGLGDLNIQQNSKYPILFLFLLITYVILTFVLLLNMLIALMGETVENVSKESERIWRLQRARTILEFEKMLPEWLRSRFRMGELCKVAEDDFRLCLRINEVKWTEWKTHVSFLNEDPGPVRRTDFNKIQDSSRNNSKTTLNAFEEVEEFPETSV
Chain of TRPA1 (O75762 whole entry): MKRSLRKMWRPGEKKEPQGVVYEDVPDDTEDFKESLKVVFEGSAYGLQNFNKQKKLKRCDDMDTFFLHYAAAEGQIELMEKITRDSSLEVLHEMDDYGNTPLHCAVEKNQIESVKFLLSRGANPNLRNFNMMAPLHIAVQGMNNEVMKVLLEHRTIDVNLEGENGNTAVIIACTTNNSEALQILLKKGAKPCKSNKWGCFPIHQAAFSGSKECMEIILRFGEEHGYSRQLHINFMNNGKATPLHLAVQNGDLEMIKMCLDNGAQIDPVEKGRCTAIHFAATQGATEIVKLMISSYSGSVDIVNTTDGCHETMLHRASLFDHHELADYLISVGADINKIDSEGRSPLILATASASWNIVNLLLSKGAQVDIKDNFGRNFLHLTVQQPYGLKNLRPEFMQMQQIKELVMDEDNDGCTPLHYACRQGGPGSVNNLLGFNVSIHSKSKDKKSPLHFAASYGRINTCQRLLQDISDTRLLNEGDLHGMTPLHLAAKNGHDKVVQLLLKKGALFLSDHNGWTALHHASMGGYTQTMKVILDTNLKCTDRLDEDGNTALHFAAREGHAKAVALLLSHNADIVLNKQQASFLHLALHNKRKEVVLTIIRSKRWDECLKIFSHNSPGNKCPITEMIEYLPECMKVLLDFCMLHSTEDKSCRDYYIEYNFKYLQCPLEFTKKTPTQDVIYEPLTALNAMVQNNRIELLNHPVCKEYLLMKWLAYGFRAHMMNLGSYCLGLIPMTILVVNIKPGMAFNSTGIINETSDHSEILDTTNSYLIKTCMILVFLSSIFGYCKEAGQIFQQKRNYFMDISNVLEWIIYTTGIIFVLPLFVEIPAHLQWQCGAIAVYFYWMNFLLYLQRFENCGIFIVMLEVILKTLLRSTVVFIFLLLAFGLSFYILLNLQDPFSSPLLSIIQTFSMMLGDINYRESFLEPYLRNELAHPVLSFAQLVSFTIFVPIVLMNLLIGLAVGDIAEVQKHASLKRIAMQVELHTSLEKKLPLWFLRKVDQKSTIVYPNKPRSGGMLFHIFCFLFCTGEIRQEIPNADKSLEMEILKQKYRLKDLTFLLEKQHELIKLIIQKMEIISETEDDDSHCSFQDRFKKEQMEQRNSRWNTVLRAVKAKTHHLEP

Consider CRRDRARHYRQRC (disulfide 1-13) [polypeptide DeC-1.2], for which, in the experiment with TRPV2 [1], the “half-inhibitory concentration (IC50), electrophysiology” value is approximately 10 µM. The “IC50, inhibition of menthol-activated TRPM8 current, whole-cell electrophysiology” value with mouse TRPM8 channel [2] is 4.5 nM. For the same molecule, the “IC50, inhibition of ligand-activated channel current, electrophysiology” value with TRPM4-K1045A was more than 10 µM; in the experiment with TRPV3, more than 100 µM; in the experiment with TRPV1, more than 100 µM; in the experiment with TRPM2 it was more than 100 µM; with TRPV2 [3], more than 5 µM. Further, the “IC50, inhibition of channel current, electrophysiology” value with TRPA1 was more than 100 µM. The “IC50, inhibition of sodium channel current, electrophysiology” value in the experiment with Nav1.7 and in the experiment with Nav1.5 was more than 100 µM throughout.

On to CRNSRAAHDSQKC (disulfide 1-13) [polypeptide DeC-1.1], for which, in the experiment with mouse TRPM8 channel [4], the “half-inhibitory concentration (IC50), electrophysiology” value was 133 µM.

Values taken from patent publication US20240417428A1 (ZHEJIANG UNIVERSITY, published 2024).
